{"source": "patent US20140274782A1", "about": "“AFFINITY REAGENTS AND METHODS FOR DETECTION, PURIFICATION, AND PROTEOMIC ANALYSIS OF METHYLATED PROTEINS” (The Board of Trustees of the Leland Stanford Junior …, priority 2013, published 2014)", "molecules": {"B1": {"name": "SRP68 (protein, UniProt Q9UHB9 1-627, looked up)", "Signal recognition particle …": "MAAEKQVPGGGGGGGSGGGGGSGGGGSGGGRGAGGEENKENERPSAGSKANKEFGDSLSLEILQIIKESQQQHGLRHGDFQRYRGYCSRRQRRLRKTLNFKMGNRHKFTGKKVTEELLTDNRYLLLVLMDAERAWSYAMQLKQEANTEPRKRFHLLSRLRKAVKHAEELERLCESNRVDAKTKLEAQAYTAYLSGMLRFEHQEWKAAIEAFNKCKTIYEKLASAFTEEQAVLYNQRVEEISPNIRYCAYNIGDQSAINELMQMRLRSGGTEGLLAEKLEALITQTRAKQAATMSEVEWRGRTVPVKIDKVRIFLLGLADNEAAIVQAESEETKERLFESMLSECRDAIQVVREELKPDQKQRDYILEGEPGKVSNLQYLHSYLTYIKLSTAIKRNENMAKGLQRALLQQQPEDDSKRSPRPQDLIRLYDIILQNLVELLQLPGLEEDKAFQKEIGLKTLVFKAYRCFFIAQSYVLVKKWSEALVLYDRVLKYANEVNSDAGAFKNSLKDLPDVQELITQVRSEKCSLQAAAILDANDAHQTETSSSQVKDNKPLVERFETFCLDPSLVTKQANLVHFPPGFQPIPCKPLFFDLALNHVAFPPLEDKLEQKTKSGLTGYIKGIFGFRS"}, "B2": {"name": "DBR1 (protein, UniProt Q9UK59 1-544, looked up)", "Lariat debranching enzyme": "MRVAVAGCCHGELDKIYETLALAERRGPGPVDLLLCCGDFQAVRNEADLRCMAVPPKYRHMQTFYRYYSGEKKAPVLTLFIGGNHEASNHLQELPYGGWVAPNIYYLGLAGVVKYRGVRIGGISGIFKSHDYRKGHFECPPYNSSTIRSIYHVRNIEVYKLKQLKQPIDIFLSHDWPRSIYHYGNKKQLLKTKSFFRQEVENNTLGSPAASELLEHLKPTYWFSAHLHVKFAALMQHQAKDKGQTARATKFLALDKCLPHRDFLQILEIEHDPSAPDYLEYDIEWLTILRATDDLINVTGRLWNMPENNGLHARWDYSATEEGMKEVLEKLNHDLKVPCNFSVTAACYDPSKPQTQMQLIHRINPQTTEFCAQLGIIDINVRLQKSKEEHHVCGEYEEQDDVESNDSGEDQSEYNTDTSALSSINPDEIMLDEEEDEDSIVSAHSGMNTPSVEPSDQASEFSASFSDVRILPGSMIVSSDDTVDSTIDREGKPGGTVESGNGEDLTKVPLKRLSDEHEPEQRKKIKRRNQAIYAAVDDDDDDAA"}, "B3": {"name": "DUT (protein, UniProt P33316 70-252, looked up)", "Deoxyuridine 5'-triphosphate …": "ASTVGAAGWKGELPKAGGSPAPGPETPAISPSKRARPAEVGGMQLRFARLSEHATAPTRGSARAAGYDLYSAYDYTIPPMEKAVVKTDIQIALPSGCYGRVAPRSGLAAKHFIDVGAGVIDEDYRGNVGVVLFNFGKEKFEVKKGDRIAQLICERIFYPEIEEVQALDDTERGSGGFGSTGKN"}, "B4": {"name": "HNRNPH3 (protein, UniProt P31942 1-346, looked up)", "Heterogeneous nuclear …": "MDWVMKHNGPNDASDGTVRLRGLPFGCSKEEIVQFFQGLEIVPNGITLTMDYQGRSTGEAFVQFASKEIAENALGKHKERIGHRYIEIFRSSRSEIKGFYDPPRRLLGQRPGPYDRPIGGRGGYYGAGRGSMYDRMRRGGDGYDGGYGGFDDYGGYNNYGYGNDGFDDRMRDGRGMGGHGYGGAGDASSGFHGGHFVHMRGLPFRATENDIANFFSPLNPIRVHIDIGADGRATGEADVEFVTHEDAVAAMSKDKNNMQHRYIELFLNSTPGGGSGMGGSGMGGYGRDGMDNQGGYGSVGRMGMGNNYSGGYGTPDGLGGYGRGGGGSGGYYGQGGMSGGGWRGMY"}}, "data": [{"tested_on": "3×MBT domain of L3MBTL1", "assay": "Triple SILAC pull-down, 3xMBT/3xMBTD355N ratio (cytoplasmic, nuclear and chromatin fractions of 293T cells);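 further: proteins quantified with MaxQuant, requiring at least two unique peptides and quantification in both label directions, normalized to the mean of proteins from a digested loading control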", "assay_type": "binding, human", "conditions": "SILAC ratio, pull-down 3xMBT vs 3xMBTD355N; experiment with UNC0638 in heavy SILAC media", "units": {"3xMBT/D355N UNC Heavy": "log base 2"}, "values": [{"molecule": "B1", "3xMBT/D355N UNC Heavy": 2.41}, {"molecule": "B2", "3xMBT/D355N UNC Heavy": 3.11}, {"molecule": "B3", "3xMBT/D355N UNC Heavy": 1.63}, {"molecule": "B4", "3xMBT/D355N UNC Heavy": 1.94}]}, {"tested_on": "3×MBT domain of L3MBTL1", "assay": "Triple SILAC pull-down, 3xMBT/3xMBTD355N ratio (cytoplasmic, nuclear and chromatin fractions of 293T cells)", "assay_type": "binding, human", "conditions": "SILAC ratio, pull-down 3xMBT vs 3xMBTD355N; experiment with UNC0638 in light SILAC media", "units": {"3xMBT/D355N UNC Light": "log base 2"}, "values": [{"molecule": "B1", "3xMBT/D355N UNC Light": 3.28}, {"molecule": "B2", "3xMBT/D355N UNC Light": 2.56}, {"molecule": "B3", "3xMBT/D355N UNC Light": 2.37}, {"molecule": "B4", "3xMBT/D355N UNC Light": 2.57}]}, {"target": "T1, G9a and GLP (Homo sapiens, UniProt Q96KQ7+Q9H9B1)", "T1 sequence (Q96KQ7 2-1210 limits assumed)": "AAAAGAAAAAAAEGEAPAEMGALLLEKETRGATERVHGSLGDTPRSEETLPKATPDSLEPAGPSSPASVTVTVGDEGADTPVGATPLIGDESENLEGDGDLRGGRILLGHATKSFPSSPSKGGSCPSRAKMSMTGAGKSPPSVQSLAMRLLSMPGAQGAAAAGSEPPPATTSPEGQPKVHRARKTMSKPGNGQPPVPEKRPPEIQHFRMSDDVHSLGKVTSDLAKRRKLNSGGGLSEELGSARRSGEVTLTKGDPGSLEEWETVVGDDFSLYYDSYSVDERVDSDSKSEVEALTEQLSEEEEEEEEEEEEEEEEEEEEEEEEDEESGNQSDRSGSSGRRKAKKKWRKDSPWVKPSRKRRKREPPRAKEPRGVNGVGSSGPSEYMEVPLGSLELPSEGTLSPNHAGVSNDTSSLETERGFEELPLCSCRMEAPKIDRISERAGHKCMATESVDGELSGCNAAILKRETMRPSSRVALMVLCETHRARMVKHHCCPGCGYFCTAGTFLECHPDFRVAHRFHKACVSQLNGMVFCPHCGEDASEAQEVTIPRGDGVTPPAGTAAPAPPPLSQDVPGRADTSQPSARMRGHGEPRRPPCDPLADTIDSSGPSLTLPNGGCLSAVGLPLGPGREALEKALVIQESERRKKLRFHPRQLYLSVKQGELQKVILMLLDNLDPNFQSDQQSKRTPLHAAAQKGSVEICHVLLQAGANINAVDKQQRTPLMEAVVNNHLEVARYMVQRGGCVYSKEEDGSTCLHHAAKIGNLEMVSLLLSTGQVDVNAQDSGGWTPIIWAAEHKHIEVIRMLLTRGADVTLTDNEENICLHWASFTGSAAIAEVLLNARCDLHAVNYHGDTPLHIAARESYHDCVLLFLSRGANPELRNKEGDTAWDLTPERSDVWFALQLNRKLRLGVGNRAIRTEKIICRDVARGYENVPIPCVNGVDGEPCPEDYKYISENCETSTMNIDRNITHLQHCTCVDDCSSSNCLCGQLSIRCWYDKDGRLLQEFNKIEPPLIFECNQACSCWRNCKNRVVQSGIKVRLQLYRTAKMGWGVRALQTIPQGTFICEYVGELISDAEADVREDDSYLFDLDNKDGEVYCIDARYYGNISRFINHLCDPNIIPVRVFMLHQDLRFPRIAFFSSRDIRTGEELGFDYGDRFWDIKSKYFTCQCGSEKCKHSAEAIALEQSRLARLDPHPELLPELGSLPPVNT", "T1 sequence (Q9H9B1 2-1298 limits assumed)": "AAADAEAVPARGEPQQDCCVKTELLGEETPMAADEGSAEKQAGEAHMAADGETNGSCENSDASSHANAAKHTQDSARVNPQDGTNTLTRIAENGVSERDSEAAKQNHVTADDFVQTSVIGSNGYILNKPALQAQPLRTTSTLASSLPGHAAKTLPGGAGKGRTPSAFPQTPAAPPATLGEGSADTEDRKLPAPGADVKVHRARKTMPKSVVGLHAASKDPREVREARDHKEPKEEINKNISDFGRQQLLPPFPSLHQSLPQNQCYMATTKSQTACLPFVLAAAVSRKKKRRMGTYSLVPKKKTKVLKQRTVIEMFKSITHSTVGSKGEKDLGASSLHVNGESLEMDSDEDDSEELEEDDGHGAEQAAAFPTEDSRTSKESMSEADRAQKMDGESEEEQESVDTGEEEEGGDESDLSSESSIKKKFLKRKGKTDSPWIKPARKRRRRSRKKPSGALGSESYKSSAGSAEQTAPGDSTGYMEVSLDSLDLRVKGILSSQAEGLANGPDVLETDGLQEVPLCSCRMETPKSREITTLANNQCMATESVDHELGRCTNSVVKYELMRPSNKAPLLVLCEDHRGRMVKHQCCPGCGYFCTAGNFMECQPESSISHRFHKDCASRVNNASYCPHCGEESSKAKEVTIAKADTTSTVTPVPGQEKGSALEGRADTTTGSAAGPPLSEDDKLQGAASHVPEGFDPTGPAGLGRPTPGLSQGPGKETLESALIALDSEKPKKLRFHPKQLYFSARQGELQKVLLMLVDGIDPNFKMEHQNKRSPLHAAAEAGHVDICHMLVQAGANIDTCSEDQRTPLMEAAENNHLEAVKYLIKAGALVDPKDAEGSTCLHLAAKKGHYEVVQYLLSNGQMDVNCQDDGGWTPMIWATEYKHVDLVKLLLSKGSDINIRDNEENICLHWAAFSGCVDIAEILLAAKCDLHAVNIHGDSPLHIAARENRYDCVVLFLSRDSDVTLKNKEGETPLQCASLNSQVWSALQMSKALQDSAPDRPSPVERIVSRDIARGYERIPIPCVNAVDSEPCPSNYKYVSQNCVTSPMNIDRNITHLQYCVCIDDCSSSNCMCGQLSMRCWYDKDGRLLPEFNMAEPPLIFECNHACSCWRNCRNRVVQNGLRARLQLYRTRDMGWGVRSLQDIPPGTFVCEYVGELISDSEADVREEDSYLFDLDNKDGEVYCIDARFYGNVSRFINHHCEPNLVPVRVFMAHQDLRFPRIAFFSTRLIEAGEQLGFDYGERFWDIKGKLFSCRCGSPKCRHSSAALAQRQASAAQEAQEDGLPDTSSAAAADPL", "assay": "Triple SILAC pull-down after UNC0638 treatment of 293T cells, DMSO/UNC0638 ratio of protein captured by 3×MBT;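 further: mass spectrometry (Q-Exactive) SILAC quantitation, DMSO/UNC0638 ratio computed after subtracting 3×MBTD355N mutant pull-down background, only proteins with at least twofold 3×MBT over mutant signal considered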", "assay_type": "cell-based", "parameters": "endogenous in cells; host or cells: HEK 293T", "conditions": "SILAC ratio DMSO/UNC0638 of protein pulled down with 3xMBT; UNC0638 in heavy SILAC media", "units": {"Relative to UNC0638 UNC Heavy": "log base 2"}, "values": [{"molecule": "B1", "Relative to UNC0638 UNC Heavy": "−0.08"}, {"molecule": "B2", "Relative to UNC0638 UNC Heavy": 0.54}, {"molecule": "B3", "Relative to UNC0638 UNC Heavy": 0.62}, {"molecule": "B4", "Relative to UNC0638 UNC Heavy": 0.28}]}, {"target": "T1, G9a and GLP", "assay": "Triple SILAC pull-down after UNC0638 treatment of 293T cells, DMSO/UNC0638 ratio of protein captured by 3×MBT", "assay_type": "cell-based", "parameters": "endogenous in cells; host or cells: HEK 293T", "conditions": "SILAC ratio DMSO/UNC0638 of protein pulled down with 3xMBT; UNC0638 in light SILAC media", "units": {"Relative to UNC0638 UNC Light": "log base 2"}, "values": [{"molecule": "B1", "Relative to UNC0638 UNC Light": 0.76}, {"molecule": "B2", "Relative to UNC0638 UNC Light": 0.13}, {"molecule": "B3", "Relative to UNC0638 UNC Light": 0.04}, {"molecule": "B4", "Relative to UNC0638 UNC Light": 0.39}]}, {"target": "T1, G9a and GLP", "assay": "Triple SILAC pull-down after UNC0638 treatment of 293T cells, DMSO/UNC0638 ratio of protein captured by 3×MBT", "assay_type": "cell-based", "parameters": "endogenous in cells; host or cells: HEK 293T", "conditions": "average of UNC Light and UNC Heavy experiments", "units": {"Relative to UNC0638 Average": "log base 2"}, "values": [{"molecule": "B1", "Relative to UNC0638 Average": 0.34}, {"molecule": "B2", "Relative to UNC0638 Average": 0.33}, {"molecule": "B3", "Relative to UNC0638 Average": 0.33}, {"molecule": "B4", "Relative to UNC0638 Average": 0.34}]}]}
